Source: patent US20260265385A1, “CD122 BINDING AGENTS AND METHOD OF USING SAME” (AnaptysBio, Inc., priority 2022, published 2026)

Key:
[1] = target: human IL-2Rβ (CD122), full-length, on cells (human) (UniProt P14784); test: flow cytometry competition: antibody titrated against recombinant IL-2 (5 nM) binding to HEK293 cells expressing human IL-2Rβ and IL-2Rγ
[2] = target: human IL-2Rβ (CD122), full-length, on cells (human) (UniProt P14784); test: flow cytometry competition: antibody titrated against recombinant IL-15 (2 nM) binding to HEK293 cells expressing human IL-2Rβ and IL-2Rγ

human IL-2Rβ (CD122), full-length, on cells (human), sequence (P14784 27-551): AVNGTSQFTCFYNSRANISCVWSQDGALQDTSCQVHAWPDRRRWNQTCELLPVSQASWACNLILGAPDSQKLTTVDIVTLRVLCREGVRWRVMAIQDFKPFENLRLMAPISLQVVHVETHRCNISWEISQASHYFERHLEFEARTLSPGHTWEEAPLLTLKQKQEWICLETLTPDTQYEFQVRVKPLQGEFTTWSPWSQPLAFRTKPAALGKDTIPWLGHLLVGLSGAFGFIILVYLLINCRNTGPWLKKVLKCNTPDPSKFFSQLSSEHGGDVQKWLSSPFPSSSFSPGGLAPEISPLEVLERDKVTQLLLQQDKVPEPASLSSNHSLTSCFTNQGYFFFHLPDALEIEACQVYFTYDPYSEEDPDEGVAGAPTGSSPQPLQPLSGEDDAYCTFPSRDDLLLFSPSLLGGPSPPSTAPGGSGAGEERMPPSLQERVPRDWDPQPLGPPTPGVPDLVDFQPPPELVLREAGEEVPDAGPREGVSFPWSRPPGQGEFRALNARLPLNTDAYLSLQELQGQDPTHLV

IC50 (read off the curve) [1]: 1 nM
IC50 (read off the curve) [2]: 0.9 nM
B1: APE14773.01 (anti-CD122 control ref ABC2) (antibody, from another filing, V domains shown)
VH: EVKLVESGGGLVQPGGSLRLSCATSGFTFSDFYMEWVRQPPGKRLEWIAASRNKANDYTTEYSASVKGRFIVSRDTSQSILYLQMNALRAEDTAIYYCARSYYRYDGMDYWGQGTSVTVSS
VL: QVVLTQSPVIMSASPGEKVTMTCSAISSVSYMYWYQQKPGSSPRLLIYDTSNLVSGVPVRFSGSGSGTSYSLTISRMEAEDAATYYCQQWNTYPYTFGGGTKLEIK
